Earlier results as cited in patent publication US20020094542A1, “Drugs and methods for treating cancer” (priority 1989, published 2002).

Conditions: patients with kidney transplants

OKT3: monoclonal heterologous AB used clinically in patients with kidney transplants
side-effects of treatment: low (flu-like)
